{"source": "the DeepSol protein solubility set", "data": [{"assay": "soluble on expression in E. coli; label from the status in PepcDB or PDB records", "values": [{"sequence": "MGSSHHHHHHSSGLVPRGSHMNKPIGVIDSGVGGLTVAKEIMRQLPNETIYYLGDIGRCPYGPRPGEQVKQYTVEIARKLMEFDIKMLVIACNTATAVALEYLQKTLSISVIGVIEPGARTAIMTTRNQNVLVLGTEGTIKSEAYRTHIKRINPHVEVHGVACPGFVPLVEQMRYSDPTITSIVIHQTLKRWRNSESDTVILGCTHYPLLYKPIYDYFGGKKTVISSGLETAREVSALLTFSNEHASYTEHPDHRFFATGDTTHITNIIKEWLNLSVNVERISVND", "soluble on expression in E. coli": "soluble"}, {"sequence": "MGSSHHHHHHSSGLVPRGSHMQAATVVINRRALRHNLQRLRELAPASKMVAVVKANAYGHGLLETARTLPDADAFGVARLEEALRLRAGGITKPVLLLEGFFDARDLPTISAQHFHTAVHNEEQLAALEEASLDEPVTVWMKLDTGMHRLGVRPEQAEAFYHRLTQCKNVRQPVNIVSHFARADEPKCGATEKQLAIFNTFCEGKPGQRSIAASGGILLWPQSHFDWVRPGIILYGVSPLKDRSTGADFGCQPVMSLTSSLIAVREHKAGEPVGYGGTWVSERDTRLGVVAMGYGDGYPRAAPSGTPVLVNGREVPIVGRVAMDMICVDLGPQAQDKAGDPVILWGEGLPVERIAEMTKVSAYELITRLTSRVAMKYVD", "soluble on expression in E. coli": "soluble"}, {"sequence": "MGSSHHHHHHSSGLVPRGSHMSVPLYGFTSICGRRPEMEDAVSTIPRFLQSSSGSMLDGRFDPQSAAHFFGVYDGHGGSQVANYCRERMHLALAEEIAKEKPMLCDGDTWLEKWKKALFNSFLRVDSEIESVAPETVGSTSVVAVVFPSHIFVANCGDSRAVLCRGKTALPLSVDHKPDREDEAARIEAAGGKVIQWNGARVFGVLAMSRSIGDRYLKPSIIPDPEVTAVKRVKEDDCLILASDGVWDVMTDEEACEMARKRILLWHKKNAVAGDASLLADERRKEGKDPAAMSAAEYLSKLAIQRGSKDNISVVVVDLKPRRKLK", "soluble on expression in E. coli": "soluble"}, {"sequence": "MGSSHHHHHHSSGLVPRGSHMTRSKVAIIGGGPAGSVAGLTLHKLGHDVTIYERSAFPRYRVGESLLPGTMSILNRLGLQEKIDAQNYVKKPSATFLWGQDQAPWTFSFAAPKVAPWVFDHAVQVKREEFDKLLLDEARSRGITVHEETPVTDVDLSDPDRVVLTVRRGGESVTVESDFVIDAGGSGGPISRKLGVRQYDEFYRNFAVWSYFKLKDPFEGDLKGTTYSITFEDGWVWMIPIKDDLYSVGLVVDRSKSAEVREQGADAFYSSTLAKCAKAMDILGGAEQVDEVRIVQDWSYDTEVFSADRFFLCGDAACFTDPLFSQGVHLASQSAVSAAAAIDRITRHGDEKDAVHAWYNRTYREAYEQYHQFLASFYTFASFTEPDSEFWRKRRITESDDDRLTRKKWFESLAGNGPEDPSGTVASFRDRASTMIAIGRHQRPELSDDFSEAELNPARVRWISDLTKRLNSITRFKWTGGKAVLKQHYRVEPIGFRLEQREVLANGEGLDMAQYPMDDEARQIFQDLAEEEFGYKTLVKRLGAVGRQELSTQIVVRLMEAGLLTGYDAQGEKVFVQGRLHFGGVGVEYEV", "soluble on expression in E. coli": "soluble"}, {"sequence": "MGSSHHHHHHSSGLVPRGSMNNIYPLVICGPSGVGKGTLIKKLLNEFPNYFYFSVSCTTRKKREKEKEGVDYYFIDKTIFEDKLKNEDFLEYDNYANNFYGTLKSEYDKAKEQNKICLFEMNINGVKQLKKSTHIKNALYIFIKPPSTDVLLSRLLTRNTENQEQIQKRMEQLNIELHEANLLNFNLSIINDDLTLTYQQLKNYLLNSYIHLNNHTRN", "soluble on expression in E. coli": "soluble"}, {"sequence": "MGSSHHHHHHSSGLVPRGSMSTSWSDRLQNAADMPANMDKHALKKYRREAYHRVFVNRSLAMEKIKCFGFDMDYTLAVYKSPEYESLGFELTVERLVSIGYPQELLSFAYDSTFPTRGLVFDTLYGNLLKVDAYGNLLVCAHGFNFIRGPETREQYPNKFIQRDDTERFYILNTLFNLPETYLLACLVDFFTNCPRYTSCETGFKDGDLFMSYRSMFQDVRDAVDWVHYKGSLKEKTVENLEKYVVKDGKLPLLLSRMKEVGKVFLATNSDYKYTDKIMTYLFDFPHGPKPGSSHRPWQSYFDLILVDARKPLFFGEGTVLRQVDTKTGKLKIGTYTGPLQHGIVYSGGSSDTICDLLGAKGKDILYIGDHIFGDILKSKKRQGWRTFLVIPELAQELHVWTDKSSLFEELQSLDIFLAELYKHLDSSSNERPDISSIQRRIKKVTHDMDMCYGMMGSLFRSGSRQTLFASQVMRYADLYAASFINLLYYPFSYLFRAAHVLMPHESTVEHTHVDINEMESPLATRNRTSVDFKDTDYKRHQLTRSISEIKPPNL", "soluble on expression in E. coli": "soluble"}, {"sequence": "MGSSHHHHHHSSGRENLYFQGMVKNYVLDTNVLIHDPDSIFSFEDNNVIIPLPVLEELDKLKREHGSVGKNAREVIRHLDELRKKGNLRKGIPLENGGILRVMVLEREVENVPRFLHERYVDNIILAYVIELMNREKIPTILVSKDINLRVKADSLGIPAQDYLTDRSELETMPKGYVEIDDEELKKQLKVKVTVEKKLDLLDNFYIDLGGVYGKYRKGKVLRVEPFETMGISPRNREQIFSMDALLDDEIPLVFLVGIAGTGKTLLALACGLYKVLVEKRYKKLIVTRPTVPMGRDIGYLPGELEKKMKPWLQPIMDNLELISSLSGLKIKELEKQEILEVEAISFIRGRSIPKQFIIIDEAQNLTPHEVKTILTRVGEDTKIVLVGDPYQIDTPYLDKDTNGLVYAALKLLESDLSAVIKLEKGERSRLATIAAELL", "soluble on expression in E. coli": "soluble"}, {"sequence": "MGSSIASSLMDPTQYYSQFISLQKASLEKAKTPYQNQISSYQSRIDLYASLKNALSDSLKTMSSFTTYESKTKLATSSNETSFTVSSTSSSVNGSYSIEVQNLATADT", "soluble on expression in E. coli": "not soluble"}, {"sequence": "MGSVSTGNAGSGTVGTSTTSRADVMTFQPSSLPVSYVGETYNVQVGVTGGVGPYGYRLTAGTLPPGLKFAGGALSGTPTKAGSYSFAIQATDANLSTRVQEYTMNVDALPPLALKPTLPPGEIRGETRIPVTIQAPRAVRAARLSWDLGKDVQVTRVQPADAGSVVFWQQRGSVLTVDLGFRTVPRPDARIALITVKPAKAVTLKADALGYEARDGSGKMLVDKKRPGSEPVKPAEQPGDPKVDPKAADQKATDQKATDPKTVDPKTVTPADTVEGGPLPSPALPTPSLPPTLPPVTTPPANTPPVPTPTPPANQPAPAPAPQPAPAPQPTPPSGTGGALEHHHHHH", "soluble on expression in E. coli": "not soluble"}, {"sequence": "MGSYSSDDVEVIREAGRAQGLATILAIGTATPPNCVAQADYADYYFRVTKSEHMVDLKEKFKRICEKTAIKKRYLALTEDYLQENPTMCEFMAPSLNARQDLVVTGVPMLGKEAAVKAIDEWGLPKSKITHLIFCTTAGVDMPGADYQLVKLLGLSPSVKRYMLYQQGCAAGGTVLRLAKDLAENNKGSRVLIVCSEITAILFHGPNENHLDSLVAQALFGDGAAALIVGSGPHLAVERPIFEIVSTDQTILPDTEKAMKLHLREGGLTFQLHRDVPLMVAKNIENAAEKALSPLGITDWNSVFWMVHPGGRAILDQVERKLNLKEDKLRASRHVLSEYGNLISACVLFIIDEVRKRSMAEGKSTTGEGLDCGVLFGFGPGMTVETVVLRSVRVTAAVANGN", "soluble on expression in E. coli": "soluble"}, {"sequence": "MGTEVSTSPTSLIDQTVVPGDVVLDLSNMTNQTIKLGSGLRQDNEVISVMRAGKLRYSKPNKYWVESSHKRYVPRPEDHVLGIVVDCKGENYWIDIKGPQLALLPVLAFEGANRRNYPKFEVSTLLYTRVVKTNTGMNPELSCVDESGKAAGFGPLKDGFMFETSTGLSRMLLSSPTCPVLEALGKKLSFETAFGLNGRCWVHAAAPRIVIIVANALMNSETLSGTQQRIMVEKLLEKISD", "soluble on expression in E. coli": "soluble"}, {"sequence": "MGTILDKIVNQKKKEVAALYETYTPVKEKRKTRSLVKALEQFTVIAEVKRASPSKGDINLHVDVRKQVKTYEECGAGAVSVLTDGQFFKGSFYDLQTAREESSIPLLCKDFIIDKIQIDRAYEAGADIILLIVAALTKEKLKELYSYVLEKGLEAIVEVHDEQELEIAIQLNPHVIGINNRNLKTFEVDLSQTEKLGKRLNEEKLLWISESGIHSKEDIIRVKRAGAKGVLVGEALMTSSSIHTFFEDCKVNI", "soluble on expression in E. coli": "not soluble"}, {"sequence": "MGTLSVNQNKLQKRLRRLAGEAVADFNMIEEGDKVMVCLSGGKDSYTLLDVLMHFQKVAPIRFDIVAVNMDQKQPGFPEHVLPAYLKELGVEYHIVEKDTHSVVKELIPEGKTTCSLCSRLRRGTLYTFADQIGATKMALGHHRDDIIETFFLNMFFNGALKAMPPKLRADDGRNVVIRPLAYCHEKDIQAYSDLKQFPIIPCNL", "soluble on expression in E. coli": "not soluble"}, {"sequence": "MGTMHTSELLKHIYDINLSYLLLAQRLIVQDKASAMFRLGINEEMANTLGALTLPQMVKLAETNQLVCHFRFDDHQTITRLTQDSRVDDLQQIHTGIMLSTRLLNEVDDTARKKRA", "soluble on expression in E. coli": "not soluble"}, {"sequence": "MGTMVFVNFPVADVQRSTAFYEKLGFKKNEEFSTEEASSMMWDDQFWIMLLNHDFYGKFIQEKQIIDAQTTSGALISFSLESAEAVKQFGETAKANGGNCYRVDMGIPEEQMYGLEVQDLDGNSLEPVWMKM", "soluble on expression in E. coli": "not soluble"}, {"sequence": "MGVEKTIVGIAGKIAAGKTTVAKFLEELGFCRISCSEPLLDILTGNVSEYSWVPEVNFKGEPTRENLIELGRLLKEKYGEDILIRLAIDKLRRCKNIAIDGVRSLGEVEAIKRMGGIIIYIEARAEVRFERLRKRCSEKDRGIKTLQDLLRFDEWEERLYSTTNIKEKADFVILNEGSLEELKKKVREILREHSN", "soluble on expression in E. coli": "not soluble"}, {"sequence": "MGVHVVLYQPEIPANTGNIARTCAATGTELHLIRPLGFSTDDKMLKRAGLDYWQHVKITYYDSIEEFYEKNKDGEFFYLTKYGEKAHTAFDYSKREKDYYFVFGRETNGLPANVIEENFDHCLRIPMTDKVRSLNLSNTAAILIYEAFRQQNYPGLDLEIVY", "soluble on expression in E. coli": "not soluble"}, {"sequence": "MGVMKGIEFSESKLKEILDQLPIEAQSAFAASCAQRIFTCYVEYARVAKSKKVDLDAYSEAISYVWNAVIAGNHDAIILNGLLERCMAVLPSEEDAWESGTPYAEDAAAAIIYSLRSLASGCPQEAIWAAKRVYEAVDNFVVNTYNVNTNATDGEKFILDHPIVSNELSRQLRDLNEIINSKRDSESLKKTIKIIMERSKSESNDLFSEAT", "soluble on expression in E. coli": "not soluble"}, {"sequence": "MGVTLAKGGNVSLSKAAPNLTQVMIGLGWDARSTTGAPFDLDASALLCREGRVLGDEWFVFYNQLKSPDGSVEHTGDNLTGEGEGDDESILVDLSTVPAQVDKIVFPVSIHEADNRGQTFGQVSNAFIRVVNQADGQELARYDLSEDASTETAMIFGEVYRYGGEWKFRAVGQGYASGLRGIVQDFGVSVS", "soluble on expression in E. coli": "not soluble"}, {"sequence": "MGYVPIKNDYNEAQNKDSQSFLIMGLDNTIERKLGTTRTDAMMVITVNNKTKKITYLSLPRDSFVQIDAKNYQGMQRIEAAYTYDGPTASVNTVEKLLNIPINHYVVFNFLSFIKLIDAVGGIDVNVKQAFDGVTKDGPGSIHFDAGKQHLDGTKALSYARERHSDNDIMRGFRQQEIIQAVEDKLKSGQSIMKIMDIIDSLNGNIQTDVDSNELTHLVKEGLTWTNYDKQQLSFDWRTFSNEGRSMVELYPDSIENVRHQLRVSLNLEKPDERDQDGYVFHTNGEFLYQSDYTVQDEAAEENEMTSINGNTYIGVPGNTQTGPLPSVKTENGFIKLEHHHHHH", "soluble on expression in E. coli": "soluble"}, {"sequence": "MHCAENCIFCKIIAGDIPSAKVYEDEHVLAFLDISQVTKGHTLVIPKTHIENVYEFTDELAKQYFHAVPKIARAIRDEFEPIGLNTLNNNGEKAGQSVFHYHMHIIPRYGKGDGFGAVWKTHADDYKPEDLQNISSSIAKRLASS", "soluble on expression in E. coli": "soluble"}, {"sequence": "MHCALLYSGGKDSTLAALLLDPFYDVTLVSGSFGVRDTDPAQESATAVGFDHVTVDLDPDVAHDAVKQMFDDGYPRNGIQRVHEHAVETVARADWVADADGLGTLDAVADGTRRDDRVPTVDRPLAQSIEDRFDVDYLAPLAGIGRGAIDAMAADRLVVESGPSAEIPKADYEVELRALLRKRYGEGAVADVFPEHTQSRVQGLR", "soluble on expression in E. coli": "not soluble"}, {"sequence": "MHHHHHHMKRKSIFKDKVFLFLNAKQYKKLSPAVLFGGGKTDLLMGELKDASVLDNPATCVIDVAMTESQLSESQSTQPWITSTLDLLQSKGLRTIPEAEIGLAVINVSTEIYCNPRR", "soluble on expression in E. coli": "soluble"}]}]}
